# Experimental data: patent US20060246071A1
# B1: mAb 3.28.1 (antibody, part only; not given: light chain, V domains shown, part only)
# VH: EVQLVESGGGLVQPGGSLRLSCAASGFTFSSSWMSWVRQAPGKGLEWVANIKQDGSDKYYVDSVKGRFTISRDNAKNSLYLQMNSLRAEDTAVYYCVRDKGSGWFDYWGQGTLVTVSSA
# B2: mAb 5.2.1 (antibody, part only; not given: light chain, V domains shown, part only)
# VH: QVQLVESGGGVVQPGRSLRLSCAASGFTFSSYGMHWVRQAPGKGLEWVAVIWFDGFNKYYADSVKGRFTISRDNSKNTLYLQMNSLRAEDTAVYHCARDRGYSGYDHYYGMDVWGQGTTVTVSSA
# B3: mAb 5.39.1 (antibody, V domains shown)
# VH: QVQLVQSGAEVTKPGASVKVSCKASGYTFTAYHMYWVRQAPGQGLEWMGWINPNSGGTNYAQKFQGRVTMTRDTSISTAYMELSRLRSDDSPVYYCARDQGIAAAGPFDYWGQGTLVTVSS
# VL: EIVMTQSPATLSVSPGDRATLSCRASQSVSSNFAWYQQKPGQAPRLLIYGSSTRATGIPARFSGSGSGTEFTLTISSLQSEDFAVYYCQQYHYWWTFGQGTKVEFKR
# B4: mAb 5.86.1 (antibody, V domains shown)
# VH: QVQLVQSGAEVKKPGASVKVSCKASGYTFTGYHMYWVRQAPGQGLEWLGWINPNSGGTNYAQKFQGRVTMTRDTSISTAYMELSRLRSDDTAVYYCVRDQGIAAAGPFDYWCQGTLVTVSS
# VL: DIRMTQSPSSLSASVGDRVTITCRASQRISTYLNWYQQKPGKAPKFLIYAASSLQSGVPSRFSGSGSGTDFTLTISSLQPEDFATYYCQQSYTTPFTFGPGTKVDIKR
# B5: mAb 6.3.1 (antibody, V domains shown)
# VH: QVQLVQSGAEVKKPGASVKVSCKASGYTFTGYFMHWVPQAPGQGLEWMGWINPNSGGTNYAQNFQGRVTMTRDTSISTAYMELSRLRSDDTPVYYCARDPWQNWNSYFDYWGQGTLVTVSS
# VL: DIQMTQSPSSLSASVGDRVTITCRASQSIRSYLNWYQQKPGKAPKVLIYAASSLQSGVPSRFSGSGSGTDFTLTISSLQPEDFATYYCQQSYSTLCSFGQGTKLEIKR
# B6: mAb 5.28.1 (antibody, V domains shown)
# VH: EVQLVESGGIVVQPGGSLRLSCAASGFTFDDYTMHWVRQTPGKGLEWVSLISWDGGSTYYADSVKGRFTISRDNSKNSLYLQMNSLRTEDTALYYCAKDIDIAVAGTGFDHWGQGTLVTVSS
# VL: EIVMTQSPATLSVSPGERATLSCRASQSVTSNLAWYQQKPGQAPRLLIYGALIRATGIPARFSGSGSGTEFTLTISSLQSEDFAVYYCQQYNNWPFTFGPGTKVDIKR
# B7: mAb 3.3.2 (antibody, V domains shown)
# VH: EVQLVESGGGLVQPGGSLRLSCAVSGFTFSSYWMSWVRQAPGKGLEWVANIKQDGSEKYYVDSVKGRFTISRDNAKNSLYLQMNSLRAEDTAVYYCARDQGIAVAGPFDYWGQGTLVTVSS
# VL: EIVMTQSPATLSVSPGERATLSCRASQTVSSDLAWYQQKPGQAPRLLIYGASIRATGIPARFSGSGSGTEFTLTISSLQSEDFAVYSCQQYYNWWTFGQGTKVEIKR
# B8: mAb 5.62.1 (antibody, V domains shown)
# VH: EVQLVESGGGLVQPGGSLRLSCAASGFTFSSYWMSWVRQAPGKGLEWVANIKQDGSEKYYVDSVKGRFTISRDNAKNSLYLQMNSLRAEDTAVYYCARDPGIAVAGPFDYWGQGTLVTVSS
# VL: EIVMTQSPATLSVSPGERATLSCRASQSVSSNLAWYQQKPGQAPRLLIYGAFTRATGIPARFSGSGSGTEFTLTISSLQSEDFAVYYCQQYNHWWTFGQGTKVGIKR
# B9: mAb 5.88.3 (antibody, V domains shown)
# VH: EVQMVESGGGLVQPGGSLRLSCAASGFTLRSYWMSWVRQAPGKGLEWVANIKEDGSEKYHVDSVKGRFTISRDNAENSLFLQMSSLRAEDTAVYYCARDMEASAGLFDYWGQGTLVTVSS
# VL: EIVMTQSPATLSVSPGERAILSCRASQSISSNLAWYQQKPGQAPRLLIYGASTRATGIPARFSGSGSGTEFTLTISSLQSEDFAVYYCQQYNYWWTFGQGTKVEIKR
# Tests used:
# [1] = biological target: human Ang-2 mutated at positions 365 and 367 (human) (UniProt O15123); test: ELISA
# Chain of human Ang-2 mutated at positions 365 and 367 (human) (O15123 19-496, change not shown): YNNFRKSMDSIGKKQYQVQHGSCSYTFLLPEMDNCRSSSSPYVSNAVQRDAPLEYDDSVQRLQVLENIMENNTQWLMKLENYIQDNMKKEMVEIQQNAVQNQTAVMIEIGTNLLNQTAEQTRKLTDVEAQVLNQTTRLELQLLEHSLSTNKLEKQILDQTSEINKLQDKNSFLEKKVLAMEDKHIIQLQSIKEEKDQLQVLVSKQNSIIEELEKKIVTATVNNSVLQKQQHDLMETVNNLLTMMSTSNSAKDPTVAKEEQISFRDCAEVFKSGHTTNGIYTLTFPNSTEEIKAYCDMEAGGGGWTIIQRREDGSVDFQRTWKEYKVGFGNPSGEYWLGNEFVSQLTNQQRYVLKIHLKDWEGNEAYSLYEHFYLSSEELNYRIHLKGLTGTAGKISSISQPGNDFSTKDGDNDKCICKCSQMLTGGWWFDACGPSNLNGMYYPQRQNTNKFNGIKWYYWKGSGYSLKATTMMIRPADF
# [2] = biological target: Mouse/Human Ang-2 StuI chimera (mouse; human) (UniProt O35608); test: ELISA
# Chain of Mouse/Human Ang-2 StuI chimera (mouse; human) (O35608 other isoform, or with tags, fused parts or gaps mutant): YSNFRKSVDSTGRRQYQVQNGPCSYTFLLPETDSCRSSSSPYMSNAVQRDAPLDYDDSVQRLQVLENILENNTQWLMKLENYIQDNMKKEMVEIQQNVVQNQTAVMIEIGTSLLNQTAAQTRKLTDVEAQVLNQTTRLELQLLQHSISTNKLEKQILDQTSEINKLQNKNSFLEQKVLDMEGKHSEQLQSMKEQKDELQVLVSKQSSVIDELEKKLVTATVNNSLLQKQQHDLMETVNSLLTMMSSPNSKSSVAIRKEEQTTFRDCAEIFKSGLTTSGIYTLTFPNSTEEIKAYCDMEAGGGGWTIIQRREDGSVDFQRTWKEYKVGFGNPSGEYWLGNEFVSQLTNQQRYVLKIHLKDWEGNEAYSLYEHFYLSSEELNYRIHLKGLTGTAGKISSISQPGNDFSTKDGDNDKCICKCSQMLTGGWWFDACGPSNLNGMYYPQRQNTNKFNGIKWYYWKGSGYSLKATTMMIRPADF
# [3] = biological target: Mouse/Human chimeric Ang-2 with human StuI-TfiI fragment (residues 310-400) (mouse with human residues 310-400) (UniProt O35608); test: ELISA
# Chain of Mouse/Human chimeric Ang-2 with human StuI-TfiI fragment (residues 310-400) (mouse with human residues 310-400) (O35608 other isoform, or with tags, fused parts or gaps mutant limits assumed): as the sequence (O35608 other isoform, or with tags, fused parts or gaps mutant) above, with K386T, G393A, N403S, G410S, T424S, M440Q, R445K counted along it
# [4] = biological target: human Ang-2443 (human) (UniProt O15123); test: ELISA
# Chain of human Ang-2443 (human) (O15123 other isoform, or with tags, fused parts or gaps): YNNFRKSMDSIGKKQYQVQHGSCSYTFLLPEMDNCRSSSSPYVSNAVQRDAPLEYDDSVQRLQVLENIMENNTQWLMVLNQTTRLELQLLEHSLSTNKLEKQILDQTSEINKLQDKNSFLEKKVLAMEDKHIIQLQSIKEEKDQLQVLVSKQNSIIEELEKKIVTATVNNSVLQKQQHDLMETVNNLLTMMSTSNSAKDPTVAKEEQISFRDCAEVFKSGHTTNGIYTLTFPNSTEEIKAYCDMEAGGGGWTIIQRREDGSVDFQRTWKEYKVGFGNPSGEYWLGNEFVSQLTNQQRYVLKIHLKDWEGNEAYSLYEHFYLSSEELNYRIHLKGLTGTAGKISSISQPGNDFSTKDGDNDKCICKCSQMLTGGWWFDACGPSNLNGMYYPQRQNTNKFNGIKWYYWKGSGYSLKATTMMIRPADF
# [5] = biological target: human Ang-2 H375Q (human) (UniProt O15123); test: ELISA
# Chain of human Ang-2 H375Q (human) (O15123 19-496, stated change not applied): as the sequence (O15123 19-496, change not shown) above
# [6] = biological target: human Ang-2 V345M (human) (UniProt O15123); test: ELISA
# Chain of human Ang-2 V345M (human) (O15123 19-496, stated change not applied): as the sequence (O15123 19-496, change not shown) above
# [7] = biological target: Human Ang-1/2 BsmI chimera (human); test: ELISA
# [8] = biological target: recombinant human Angiopoietin-2 (human) (UniProt O15123); test: Biacore, mAb captured
# Chain of recombinant human Angiopoietin-2 (human) (O15123 19-496 limits assumed): as the sequence (O15123 19-496, change not shown) above
# [9] = biological target: recombinant human Angiopoietin-2 (human) (UniProt O15123); test: inhibition of rhAng-2 binding to its receptor
# [10] = biological target: recombinant human Angiopoietin-2 (human) (UniProt O15123); test: Biacore, mAb captured; kd held constant in fit
# [11] = biological target: mouse Angiopoietin-2 (mouse) (UniProt O35608); test: ELISA titration, mouse Ang-2 supernatant coated
# Chain of mouse Angiopoietin-2 (mouse) (O35608 19-496 S348N/G411A limits assumed): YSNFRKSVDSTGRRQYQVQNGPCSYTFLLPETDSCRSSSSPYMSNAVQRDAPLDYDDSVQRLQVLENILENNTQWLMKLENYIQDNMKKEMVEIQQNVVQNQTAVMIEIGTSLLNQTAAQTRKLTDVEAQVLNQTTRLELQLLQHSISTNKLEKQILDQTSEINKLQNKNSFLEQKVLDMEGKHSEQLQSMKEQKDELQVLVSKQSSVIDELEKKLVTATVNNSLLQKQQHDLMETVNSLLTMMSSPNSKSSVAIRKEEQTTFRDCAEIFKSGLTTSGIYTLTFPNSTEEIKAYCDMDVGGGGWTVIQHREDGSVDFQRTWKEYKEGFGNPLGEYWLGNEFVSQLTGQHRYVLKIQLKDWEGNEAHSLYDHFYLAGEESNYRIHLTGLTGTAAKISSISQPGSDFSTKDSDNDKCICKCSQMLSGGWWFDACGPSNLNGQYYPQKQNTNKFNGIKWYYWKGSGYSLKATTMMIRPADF
# [12] = biological target: mouse Angiopoietin-2 (mouse) (UniProt O35608); test: ELISA
Binder,percent binding compared to human Ang-2 [1] [%],percent binding compared to human Ang-2 [2] [%],percent binding compared to human Ang-2 [3] [%],percent binding compared to human Ang-2 [4] [%],percent binding compared to human Ang-2 [5] [%],percent binding compared to human Ang-2 [6] [%],percent binding compared to human Ang-2 [7] [%],Kd [8] [pM],kon [8] [M⁻¹ s⁻¹],OD650 in inibition assay [9] [OD650],koff [10] [s⁻¹],antibody concentration at saturation [11] [µg/mL],percent of their immunoreactivity on human Ang-2 [12] [%]
B1,100,100,31,100,100,100,100,37,270000,0.0588,1e-05,,
B2,100,100,100,100,100,100,100,62,160000,0.069,1e-05,10,100
B3,100,,,,100,100,100,,,,,,
B4,100,,,,100,100,100,,,,,,
B5,100,,,,100,100,100,,,,,,
B6,100,,,,100,100,100,,,,,,
B7,100,,,,100,100,100,,,,,,
B8,100,,,,100,100,100,,,,,,
B9,100,,,,100,100,100,,,,,,
